Ends that are not written are not given here.

The target in experiment [1] is T1, PACAP38 peptide fragment 4-27 (human).
T1 construct: also called peptide No. 9
T1 peptide: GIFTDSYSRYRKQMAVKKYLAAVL
Put plainly: SPR (Biacore 3000), solution competition: antibody pre-incubated 2 h with the peptide at 1:200 molar ratio (Ab:peptide), then injected over immobilised full-length PACAP38; readout % inhibition of antibody binding (filing counts >50 % as reactive). (In general: In SPR one partner is held on a chip, and binding of the other changes the refractive index at the surface.)

The target of experiment [2] is T2, PACAP38 peptide fragment 6-35 (human).
T2 construct: also called peptide No. 4
T2 peptide: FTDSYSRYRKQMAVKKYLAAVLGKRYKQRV
The description is as above.

In experiment [3] the target is T3, amino terminal PACAP38 peptide (amino acids 1-13) (human).
T3 construct: also called N-terminal Peptide; N-terminal PACAP peptide
T3 peptide: HSDGIFTDSYSRY
Briefly: ELISA screen of B-cell culture supernatant; N-terminal peptide at 500 ng/mL.

A further experiment has as its target T4, 31-38 (ends and bridges not checked).
T4 construct: also called PACAP38 peptide fragment 31-38; peptide No. 5
T4 peptide: YKQRVKNK
Briefly: SPR (Biacore 3000), solution competition: antibody pre-incubated 2 h with the peptide at 1:200 molar ratio (Ab:peptide), then injected over immobilised full-length PACAP38; readout % inhibition of antibody binding (filing counts >50 % as reactive).

Experiment [4] addresses T5, PACAP38 peptide fragment 34-38 (human, ends and bridges not checked).
T5 construct: also called peptide No. 17; RVKNK
T5 peptide: RVKNK
Briefly: SPR (Biacore 3000) solution competition: antibody pre-incubated 1:200 with the fragment, then injected over immobilised PACAP38. As to the method: (§1) In this experiment, various peptide fragments of PACAP38 were incubated with each of the six antibodies (mAb1, mAb2, mAb3, mAb4, mAb5, and mAb6) described in Example 2 and evaluated for their ability to inhibit binding of the antibodies to full-length PACAP38 immobilized on the sensor-chip. The binding epitopes for each of the antibodies were deduced from the set of peptides that were able to inhibit the binding of each antibody to full-length PACAP38.
(§2) Each of the six anti-PACAP antibodies was incubated at a 1:200 molar ratio (Ab: peptide fragment) with each of the peptide fragments in Table 9 at an ambient temperature for 2 hours prior to analysis. […] A second control containing 6.5 nM antibody was prepared in sample diluent to be used as the untreated control sample for each antibody. Full-length PACAP38, buffer, and each peptide fragment were also tested to evaluate non-specific binding to the immobilized PACAP38 surface.

The target in experiment [5] is T1, PACAP38 peptide fragment 4-27. The description is as above. As to the method: as §1, §2
Experiment [6] addresses T6, PACAP38 peptide fragment 14-38 (human, not fully specified).
T6 construct: also called peptide No. 7
T6 peptide: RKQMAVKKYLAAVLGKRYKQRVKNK
Described as above. Here is the method:
as §1, §2

Experiment [7] addresses T7, PACAP38 peptide fragment 11-27 (human).
T7 construct: also called peptide No. 8
T7 peptide: SRYRKQMAVKKYLAAVL
The experiment is described as above. Here is the method: as §1, §2

The target of experiment [8] is T2, PACAP38 peptide fragment 6-35. Described as above. As to the method:
as §1, §2

The next experiment has as its target T8, human PACAP27 (human, not fully specified).
T8 peptide: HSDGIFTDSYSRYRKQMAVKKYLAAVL
Put plainly: cell-based or functional assay.

B1: mAb6 (antibody, V domains shown)
VH: QLEESGGGLVQPGASLTLTCTTSGFSLSDNYLCWVRQAPGRGLEWVACIGIVLRSTGATYYASWAEGRFTISKTSPTTVTLEMTSLTAADTATYFCALDLGYGGPLWGPGTLVTVSS
VL: AQVLTQTPASVSAAVGGTVTINCQASQSVYNNKNLAWYQQKPGQPPKLLIYFSSTLASGVPSRFRGSGSGTQFTLTISGVQCGDAATYYCLGEFGSIWAFGGGTEVVVKG
notes: Rabbit monoclonal antibody (SLAM), recombinant; also called monoclonal anti-PACAP antibody 6; 6 (c55)
For B1, the binding result in experiment [1] and in [2] was “binds” in each case.

B2: mAb2 (antibody, V domains shown)
VH: QSLEESGGGLVQPEGSLTLTCTASGFSFNSSSYMCWVRQAPGKGLEWIGCIFTGSSGNTYYATWAQGRFTISKTSTTVTLEMTSLTAADTATYFCARDRAYFLVGYFYATYYFDLWGPGTLVTVSS
VL: DVVMTQTPSPVSAQVGGTVTINCQASESIDSDLSWYQQKPGQPPKLLIYRTFTLESGVPSRFKGSGSGTDYTLTISDLECADAAIYYCQCTDGSSISGSYGWDAFGGGTEVVVKG
notes: Rabbit monoclonal antibody (SLAM), recombinant; also called monoclonal anti-PACAP antibody 2; 2 (c81)
Take B2: in [3], the “Optical Density” value was found to be 0.06 OD. Besides, the binding result (with 31-38; in experiment [4]) was “binds” each time.

B3: mAb5 (antibody, V domains shown)
VH: QSVEESGGRLVTPGTPLTLTCTVSGFSLSTYNMCWVRQAPGKGLEWVGFINSDDSAYYASWAKGRFTFSKTSTTVDLKIASPTTEDTATYFCARYDWDYYYSRLDLWGPGTLVTVSS
VL: DIVLTQTPASVSAAVGGTVSISCQSSESVYNNNYLSWFQQKPGQPPKLLIYGASTLASGVPSRFEGSGSGTQFTLTISDVQCDDAATYYCLGDYIIIENIFGGGTEVVVKG
notes: Rabbit monoclonal antibody (SLAM), recombinant; also called monoclonal anti-PACAP antibody 5; 5 (c71)
With B3, the binding result in experiment [5], in experiment [6], in experiment [7] and in experiment [8] was “binds” throughout. Moreover, the “IC50: inhibition of PACAP27 (10 pM)-induced activation of human PAC1 receptor, cAMP assay in SH-SY5Y (CRL-2266) cells, POC versus antibody concentration” value in the experiment with human PACAP27 was determined as 41 nM.

For the origin of these results see US20180362643A1 (Amgen, published 2018).
